According to US20250019437A1:

T1: human TREM2 (triggering receptor expressed on myeloid cells 2) (human) (UniProt Q9NZC2)
T1 sequence (looked up): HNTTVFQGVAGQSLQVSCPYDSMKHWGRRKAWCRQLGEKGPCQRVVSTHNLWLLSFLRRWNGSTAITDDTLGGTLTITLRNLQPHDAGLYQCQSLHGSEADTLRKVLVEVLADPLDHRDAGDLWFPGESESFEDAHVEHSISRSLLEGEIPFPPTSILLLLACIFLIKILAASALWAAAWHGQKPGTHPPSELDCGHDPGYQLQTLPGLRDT


Experiments:
[1] = molecular target: T1, human TREM2 (triggering receptor expressed on myeloid cells 2) (human); assay: 2nd screen, 2 nM Ab
[2] = molecular target: T1, human TREM2 (triggering receptor expressed on myeloid cells 2) (human); assay: 1st screen, 10 nM Ab
[3] = molecular target: T1, human TREM2 (triggering receptor expressed on myeloid cells 2) (human); assay: 2nd screen, 10 nM Ab
[4] = molecular target: T1, human TREM2 (triggering receptor expressed on myeloid cells 2) (human); assay: 1st screen, 110 nM Ab
[5] = molecular target: T1, human TREM2 (triggering receptor expressed on myeloid cells 2) (human); assay: 2nd screen, 100 nM Ab

| Binding Signal (fold over 6E7 parental antibody) [1] | Binding Signal (fold over 6E7 parental antibody) [2] | Binding Signal (fold over 6E7 parental antibody) [3] | Binding Signal (fold over 6E7 parental antibody) [4] | Binding Signal (fold over 6E7 parental antibody) [5] | Binder |
| --- | --- | --- | --- | --- | --- |
| 4 fold | 3.38 fold | 3.44 fold | – | – | 6E7 antibody affinity modulation variant V36 (antibody, V domains shown) VH: EVQLVQSGAEVKKPGESLKISCKGSGYSFTSYWLAWVRQMPGKGLEWMGIIYPGDSDTRYSPSFQGQVTISADKSISTAYLQWSSLKASDTAMYFCARSRTFYYDSSDYFDYWGQGTLVTVSS VL: DIQMTQSPSSVSASVGDRVTITCRASQGISSWLAWYQQKPGKAPKLLIYAASSRQNGVPSRFSGSGSGTDFTLTISSLQPEDFATYFCQQADSYPRTFGQGTKLEIK |
| – | – | – | 0.79 fold | 0.42 fold | 6E7 antibody affinity modulation variant V11 (antibody, V domains shown) VH: EVQLVQSGAEVKKPGESLKISCKGSGYSFTSYWIAWVRQMPGKGLEWMGIIYPGDSDTRYSPSFQGQVTISADKSISTAYLQWSSLKASDTAMYFCARQRTFYYDSSDYFDYWGQGTLVTVSS VL: DIQMTQSPSSVSASVGDRVTITCRASQGISSWLAWYQQKPGKAPKLLIYAASSLQNGVPSRFSGSGSGTDFTLTISSLQPEDFATYFCQQAASFPRTFGQGTKLEIK |
| 3.44 fold | 4.34 fold | 4.36 fold | – | – | 6E7 antibody affinity modulation variant V38 (antibody, V domains shown) VH: EVQLVQSGAEVKKPGESLKISCKGSGYSFGSYWIAWVRQMPGKGLEWMGIIYPGDSDVRYSPSFQGQVTISADKSISTAYLQWSSLKASDTAMYFCARQRTFYYDSSDYFDYWGQGTLVTVSS VL: DIQMTQSPSSVSASVGDRVTITCRASQGISSWLAWYQQKPGKAPKLLIYAASSRQNGVPSRFSGSGSGTDFTLTISSLQPEDFATYFCQQADSHPRTFGQGTKLEIK |
| – | – | – | 0.4 fold | 0.4 fold | 6E7 antibody affinity modulation variant V23 (antibody, V domains shown) VH: EVQLVQSGAEVKKPGESLKISCKGSGYSFTSYWIAWVRQMPGKGLEWMGIIYPGDSDTRYSPSFQGQVTISADKSISTAYLQWSSLKASDTAMYFCARQRTFYYDSSDYFDYWGQGTLVTVSS VL: DIQMTQSPSSVSASVGDRVTITCRASQGISSWLAWYQQKPGKAPKLLIYAASSLQNGVPSRFSGSGSGTDFTLTISSLQPEDFATYFCQQADSFPLTFGQGTKLEIK |
| 3.69 fold | 3.46 fold | 3.49 fold | – | – | 6E7 antibody affinity modulation variant V37 (antibody, V domains shown) VH: EVQLVQSGAEVKKPGESLKISCKGSGYSHTSYWIAWVRQMPGKGLEWMGIIYPGDSDTRYSPSFAGQVTISADKSISTAYLQWSSLKASDTAMYFCARSRTFYYDSSDYFDYWGQGTLVTVSS VL: DIQMTQSPSSVSASVGDRVTITCRASQGISSWLAWYQQKPGKAPKLLIYAASSLQWGVPSRFSGSGSGTDFTLTISSLQPEDFATYFCQQADSYPRTFGQGTKLEIK |
| – | – | – | 0.79 fold | 0.72 fold | 6E7 antibody affinity modulation variant V30 (antibody, V domains shown) VH: EVQLVQSGAEVKKPGESLKISCKGSGSSFTSYWIAWVRQMPGKGLEWMGIIYPGDSDTRYSPSFQGQVTISADKSISTAYLQWSSLKASDTAMYFCARQRTFYYDSSDYFDYWGQGTLVTVSS VL: DIQMTQSPSSVSASVGDRVTITCRASQGISSWLAWYQQKPGKAPKLLIYAASSLQNGVPSRFSGSGSGTDFTLTISSLQPEDFATYFCQQADSFPRTFGQGTKLEIK |
| – | – | – | 0.17 fold | 0.42 fold | 6E7 antibody affinity modulation variant V18 (antibody, V domains shown) VH: EVQLVQSGAEVKKPGESLKISCKGSGYSFTSYHIAWVRQMPGKGLEWMGIIYPGDSDTRYSPSFQGQVTISADKSISTAYLQWSSLKASDTAMYFCARQRTFYYDSSDYFDYWGQGTLVTVSS VL: DIQMTQSPSSVSASVGDRVTITCRASQGISSWLAWYQQKPGKAPKLLIYAASSLQNGVPSRFSGSGSGTDFTLTISSLQPEDFATYFCQQADSFPRTFGQGTKLEIK |
| – | – | – | 0.59 fold | 0.48 fold | 6E7 antibody affinity modulation variant V19 (antibody, V domains shown) VH: EVQLVQSGAEVKKPGESLKISCKGSGYSFTSSWIAWVRQMPGKGLEWMGIIYPGDSDTRYSPSFQGQVTISADKSISTAYLQWSSLKASDTAMYFCARQRTFYYDSSDYFDYWGQGTLVTVSS VL: DIQMTQSPSSVSASVGDRVTITCRASQGISSWLAWYQQKPGKAPKLLIYAASSLQNGVPSRFSGSGSGTDFTLTISSLQPEDFATYFCQQADSFPRTFGQGTKLEIK |
| – | – | – | 0.18 fold | 0.52 fold | 6E7 antibody affinity modulation variant V20 (antibody, V domains shown) VH: EVQLVQSGAEVKKPGESLKISCKGSGYSFTSYWIAWVRQMPGKGLEWMGRIYPGDSDTRYSPSFQGQVTISADKSISTAYLQWSSLKASDTAMYFCARQRTFYYDSSDYFDYWGQGTLVTVSS VL: DIQMTQSPSSVSASVGDRVTITCRASQGISSWLAWYQQKPGKAPKLLIYAASSLQNGVPSRFSGSGSGTDFTLTISSLQPEDFATYFCQQADSFPRTFGQGTKLEIK |
| 3.41 fold | 4.48 fold | 4.16 fold | – | – | 6E7 antibody affinity modulation variant V40 (antibody, V domains shown) VH: EVQLVQSGAEVKKPGESLKISCKGSGYSFGSYWIAWVRQMPGKGLEWMGIIYPGDSDVRYSPSFQGQVTISADKSISTAYLQWSSLKASDTAMYFCARQRTFYYDSSDYSDYWGQGTLVTVSS VL: DIQMTQSPSSVSASVGDRVTITCRASQGISSWLAWYQQKPGKAPKLLIYAASSLQLGVPSRFSGSGSGTDFTLTISSLQPEDFATYFCQQADRFPRTFGQGTKLEIK |
| – | – | – | 0.3 fold | 0.71 fold | 6E7 antibody affinity modulation variant V22 (antibody, V domains shown) VH: EVQLVQSGAEVKKPGESLKISCKGSGYSFTSYWIAWVRQMPGKGLEWMGIIYPGDSDTRYSPSFQGQVTISADKSISTAYLQWSSLKASDTAMYFCARQRTFYYDSSDYFDYWGQGTLVTVSS VL: DIQMTQSPSSVSASVGDRVTITCRASQGISSWLAWYQQKPGKAPKLLIYRASSLQNGVPSRFSGSGSGTDFTLTISSLQPEDFATYFCQQADSFPRTFGQGTKLEIK |
| – | – | – | 0.82 fold | 0.89 fold | 6E7 antibody affinity modulation variant V32 (antibody, V domains shown) VH: EVQLVQSGAEVKKPGESLKISCKGSGYSFTSYWIAWVRQMPGKGLEWMGIIYPGDSDTRYSNSFQGQVTISADKSISTAYLQWSSLKASDTAMYFCARQRTFYYDSSDYFDYWGQGTLVTVSS VL: DIQMTQSPSSVSASVGDRVTITCRASQGISSWLAWYQQKPGKAPKLLIYAASSLQNGVPSRFSGSGSGTDFTLTISSLQPEDFATYFCQQADSFPRTFGQGTKLEIK |
| – | – | – | 0.23 fold | 0.34 fold | 6E7 antibody affinity modulation variant V33 (antibody, V domains shown) VH: EVQLVQSGAEVKKPGESLKISCKGSGYSFTSYWIAWVRQMPGKGLEWMGIIYPGDSDTRYSPSFQGQVTISADKSISTAYLQWSSLKASDTAMYFCARQRTFYGDSSDYFDYWGQGTLVTVSS VL: DIQMTQSPSSVSASVGDRVTITCRASQGISSWLAWYQQKPGKAPKLLIYAASSLQNGVPSRFSGSGSGTDFTLTISSLQPEDFATYFCQQADSFPRTFGQGTKLEIK |
| – | – | – | 0.76 fold | 0.68 fold | 6E7 antibody affinity modulation variant V21 (antibody, V domains shown) VH: EVQLVQSGAEVKKPGESLKISCKGSGYSFTSYWIAWVRQMPGKGLEWMGIIYPGDSDTRYSPSFQGQVTISADKSISTAYLQWSSLKASDTAMYFCARQRTFYYDSSDFFDYWGQGTLVTVSS VL: DIQMTQSPSSVSASVGDRVTITCRASQGISSWLAWYQQKPGKAPKLLIYAASSLQNGVPSRFSGSGSGTDFTLTISSLQPEDFATYFCQQADSFPRTFGQGTKLEIK |
| – | – | – | 0.61 fold | 0.73 fold | 6E7 antibody affinity modulation variant V31 (antibody, V domains shown) VH: EVQLVQSGAEVKKPGESLKISCKGSGYSFTSYWIAWVRQMPGKGLEWMGIIYPGDSETRYSPSFQGQVTISADKSISTAYLQWSSLKASDTAMYFCARQRTFYYDSSDYFDYWGQGTLVTVSS VL: DIQMTQSPSSVSASVGDRVTITCRASQGISSWLAWYQQKPGKAPKLLIYAASSLQNGVPSRFSGSGSGTDFTLTISSLQPEDFATYFCQQADSFPRTFGQGTKLEIK |
| 0.58 fold | 1.74 fold | 1.72 fold | – | – | 6E7 antibody affinity modulation variant V41 (antibody, V domains shown) VH: EVQLVQSGAEVKKPGESLKISCKGSGYSFTSYWIAWVRQMPGKGLEWMGTIYPGDSDTRYSPSFQGQVTISADKSISTAYLQWSSLKASDTAMYFCARQRTFYYDSSDYFDYWGQGTLVTVSS VL: DIQMTQSPSSVSASVGDRVTITCRASQGISSWLAWYQQKPGKAPKLLIYAASSLQNGVPSRFSGSGSGTDFTLTISSLQPEDFATYFCQQADSFPRTFGQGTKLEIK |
| 5.11 fold | 6.15 fold | 5.81 fold | – | – | 6E7 antibody affinity modulation variant V39 (antibody, V domains shown) VH: EVQLVQSGAEVKKPGESLKISCKGSGYSFGSYWIAWVRQMPGKGLEWMGIIYPGDSDTRYNPSFQGQVTISADKSISTAYLQWSSLKASDTAMYFCARGRTFYYDSSDYFDYWGQGTLVTVSS VL: DIQMTQSPSSVSASVGDRVTITCRASQGISSWLAWYQQKPGKAPKLLIYAASSLVNGVPSRFSGSGSGTDFTLTISSLQPEDFATYFCQQADSSPRTFGQGTKLEIK |
